In patent publication US7294753:
One block for each substance: values may come before it.

Columns and labels:
[1] = target: human macrophage migration inhibitory factor (MIF) (human) (UniProt P14174); test: cell-based or functional assay
CD80 = CD80 (UniProt P33681); test: comparator antibody, sub-head 'Kd'; method and antigen not stated
CD23 = CD23 (UniProt P06734); test: as above
Sequence of CD23 (P06734 48-321 limits assumed): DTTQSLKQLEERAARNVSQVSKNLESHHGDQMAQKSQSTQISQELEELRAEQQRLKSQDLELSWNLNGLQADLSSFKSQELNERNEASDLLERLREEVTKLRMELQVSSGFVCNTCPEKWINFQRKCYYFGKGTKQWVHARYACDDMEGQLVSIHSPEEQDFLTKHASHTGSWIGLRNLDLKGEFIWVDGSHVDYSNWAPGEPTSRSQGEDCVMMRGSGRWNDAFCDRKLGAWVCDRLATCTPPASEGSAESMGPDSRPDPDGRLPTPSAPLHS

Sequence of human macrophage migration inhibitory factor (MIF) (human) (P14174 2-115 limits assumed): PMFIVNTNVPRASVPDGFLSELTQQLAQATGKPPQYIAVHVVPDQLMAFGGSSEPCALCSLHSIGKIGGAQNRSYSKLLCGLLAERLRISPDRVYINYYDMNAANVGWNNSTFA
Sequence of CD80 (P33681 35-242 limits assumed): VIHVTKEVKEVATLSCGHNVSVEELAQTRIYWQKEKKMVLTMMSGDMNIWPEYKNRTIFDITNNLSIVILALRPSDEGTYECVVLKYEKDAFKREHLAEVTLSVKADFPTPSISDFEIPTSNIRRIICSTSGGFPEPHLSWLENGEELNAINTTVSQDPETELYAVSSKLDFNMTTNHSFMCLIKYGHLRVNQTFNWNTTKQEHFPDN

% MIF PPT Activity [1]: 105%
Substance: 2B8 (murine anti-CD20 Mab) (antibody)

Kd (CD80): 2.2 nM
Substance: IDEC-114 (anti-CD80 mab) (antibody)

Kd (CD23): 1.2 nM
Substance: IDEC-152 (anti-CD23 mab) (antibody)
